B1: DNA repair protein XRCC4 (Homo sapiens), Q13426 (parent)
chain: MERKISRIHLVSEPSITHFLQVSWEKTLESGFVITLTDGHSAWTGTVSESEISQEADDMAMEKGKYVGELRKALLSGAGPADVYTFNFSKESCYFFFEKNLKDVSFRLGSFNLEKVENPAEVIRELICYCLDTIAENQAKNEHLQKENERLLRDWNDVQGRFEKCVSAKEALETDLYKRFILVLNEKKTKIRSLHNKLLNAAQEREKDIKQEGETAICSEMTADRDPVYDESTDEESENQTDLSGLASAAVSKDDSIISSLDVTDIAPSRKRRQRMQRNLGTEPKMAPQENQLQEKENSRPDSSLPETSKKEHISAENMSLETLRNSSPEDLFDEI

Variants of: B1
Settings: with NHEJ1, Q9H9Q4-1
Sequence of NHEJ1, Q9H9Q4-1 (Q9H9Q4 whole entry): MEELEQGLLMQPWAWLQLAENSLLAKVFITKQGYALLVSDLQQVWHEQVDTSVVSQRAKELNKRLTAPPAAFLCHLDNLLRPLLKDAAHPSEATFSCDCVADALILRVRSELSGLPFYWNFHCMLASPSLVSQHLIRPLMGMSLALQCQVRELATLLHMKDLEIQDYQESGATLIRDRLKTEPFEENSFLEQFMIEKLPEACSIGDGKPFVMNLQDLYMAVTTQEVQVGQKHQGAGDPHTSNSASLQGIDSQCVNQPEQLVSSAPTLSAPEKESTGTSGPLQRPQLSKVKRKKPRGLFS

Variant	effect of a mutation on the interaction
E55R	disrupting interaction strength
D58R	disrupting interaction strength
M61R	disrupting interaction strength
K65E	decreasing interaction strength
F106A	decreasing interaction strength
F106E	disrupting interaction strength
F106Y	decreasing interaction strength

Reference: IntAct's records for PubMed 21768349
